Biological target: the molecule itself
Assay: SEC

B1: EcL-TTD αβ heterodimer (complex)
chain 1: MMSESNKQQAVNKLTEIVANFTAMISTRMPDDVVDKLKQLKDAETSSMGKIIYHTMFDNMQKAIDLNRPACQDTGEIMFFVKVGSRFPLLGELQSILKQAVEEATVKAPLRHNAVEIFDEVNTGKNTGSGVPWVTWDIIPDNDDAEIEVYMAGGGCTLPGRSKVLMPSEGYEGVVKFVFENISTLAVNACPPVLVGVGIATSVETAAVLSRKAILRPIGSRHPNPKAAELELRLEEGLNRLGIGPQGLTGNSSVMGVHIESAARHPSTIGVAVSTGCWAHRRGTLLVHADLTFENLSHTRSAL
chain 2: MKKILTTPIKAEDLQDIRVGDVIYLTGTLVTCRDVCHRRLIELKRPIPYDLNGKAIFHAGPIVRKNGDKWEMVSVGPTTSMRMESFEREFIEQTGVKLVVGKGGMGPLTEEGCQKFKALHVIFPAGCAVLAATQVEEIEEVHWTELGMPESLWVCRVKEFGPLIVSIDTHGNNLIAENKKLFAERRDPIVEEICEHVHYIK
For B1, the “stoichiometry N” value was 2.

— publication doi:10.1101/2023.06.17.545066 (bioRxiv, 2023)
